Assay results: the supplement of paper PMC7125110
± gives the standard error. Variants at the floor of the assay were thinned out.

B1: glmS ribozyme (parent)
chain: AUAAAAGCGCCAGAACUACAGAAAUGUAGUUGACGAGGAGGAGGUUUAUCGAAUUUUCGGCGGAUGCCUCCAAA

What was measured:
Settings in all cases: with glucosamine-6-phosphate
glucosamine-6-phosphate [1] = variants of: B1; test: self-cleavage kobs at 640 uM GlcN6P; higher = faster cleavage; RNA array
Procedure, shortened: (§1)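 Barcoded ribozyme variants were transcribed in situ on sequenced MiSeq chips by E. coli RNA polymerase. At 37 °C, a hybridised Cy3 probe tracked them while glucosamine-6-phosphate (40 μM to 10 mM) in HEPES/KCl/Mg(OAc)2 buffer flowed in and tiles were imaged over ~14 h. Per-tile medians of signals normalised to baseline and to non-cleaving reference variants were fit to one- or two-exponential decays, giving kobs. kcat and KM came from weighted Michaelis–Menten fits across concentrations.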

glucosamine-6-phosphate [2] = variants of: B1; test: self-cleavage kobs at 2500 uM GlcN6P; higher = faster cleavage; RNA array
Procedure, shortened: as §1

glucosamine-6-phosphate [3] = variants of: B1; test: self-cleavage kobs at 10000 uM GlcN6P; higher = faster cleavage; RNA array
Procedure, shortened: as §1

Variant | self-cleavage kobs at 640 uM GlcN6P (glucosamine-6-phosphate [1]) [s⁻¹] | self-cleavage kobs at 2500 uM GlcN6P (glucosamine-6-phosphate [2]) [s⁻¹] | self-cleavage kobs at 10000 uM GlcN6P (glucosamine-6-phosphate [3]) [s⁻¹]
A39U C58A A64U | < 1e-05 | < 1e-05 | 
G40U G41A A42U U54G G60U C71U | < 1e-05 | < 1e-05 | < 1e-05
G44C U47C A53G | < 1e-05 |  | 
U45C U46G C67G | 9.48e-05 ± 2.9e-05 |  | 
A6C G38U A42G U57C |  | < 1e-05 | 
A42U U47A U49A | < 1e-05 | < 1e-05 | 
G40A G41A A42U C68G | < 1e-05 | < 1e-05 | 
U54A U57A | 4.89e-05 ± 1.3e-05 | 0.000102 ± 2.8e-05 | 
G40C U65G | 9.16e-05 ± 3.6e-05 | 0.00036 ± 0.00012 | 0.000854 ± 0.00025
G41A U49C G60U | < 1e-05 |  | 
U47A C61A C67G C71A | < 1e-05 | < 1e-05 | 
G60C C68G C70U | < 1e-05 | < 1e-05 | 
C50A U54C U57C C70A | < 1e-05 |  | 
A42U C67A U69G C71U | 4.51e-05 ± 2e-05 | 7.23e-05 ± 1.9e-05 | 
U46G A53G C70A | 0.000507 ± 0.0001 |  | 
A42U G44C C68U | < 1e-05 | < 1e-05 | 

Variant | self-cleavage kobs at 640 uM GlcN6P (glucosamine-6-phosphate [1]) [s⁻¹] | self-cleavage kobs at 2500 uM GlcN6P (glucosamine-6-phosphate [2]) [s⁻¹] | self-cleavage kobs at 10000 uM GlcN6P (glucosamine-6-phosphate [3]) [s⁻¹]
G44U C67U C71U | 0.00022 ± 6.3e-05 | 0.00069 ± 0.00025 | 
G43A G51U U65A G66U | < 1e-05 | < 1e-05 | 
G44A U55A G59U | < 1e-05 | < 1e-05 | 
U45C U65C G66U C68G | < 1e-05 | < 1e-05 | 
U2C A6C G60A |  | < 1e-05 | 
G44A C50G | < 1e-05 | < 1e-05 | < 1e-05
G43A U46C U54A U56A U69C | < 1e-05 |  | 
A39U U56A A72U | 0.000916 ± 0.00022 | 0.00356 ± 0.00049 | 
U49C A52G U65C | < 1e-05 |  | 
U45G G60U G62C C70U | < 1e-05 | < 1e-05 | 
U49A C50G | < 1e-05 |  | 
A6G C11G U47A |  | < 1e-05 | 
U57G C67A U69G | 4.87e-05 ± 2.3e-05 |  | 
U46A A53G U65G | 0.000479 ± 0.00011 |  | 
U56C C61U C71G | < 1e-05 |  | 
G40C U45C A48G | < 1e-05 | < 1e-05 | 
